One experiment addresses T1, Recombinant Human MASP-1 (human, UniProt P48740 20-699, limits assumed).
T1 construct: Bought protein, construct not described
T1 sequence (looked up): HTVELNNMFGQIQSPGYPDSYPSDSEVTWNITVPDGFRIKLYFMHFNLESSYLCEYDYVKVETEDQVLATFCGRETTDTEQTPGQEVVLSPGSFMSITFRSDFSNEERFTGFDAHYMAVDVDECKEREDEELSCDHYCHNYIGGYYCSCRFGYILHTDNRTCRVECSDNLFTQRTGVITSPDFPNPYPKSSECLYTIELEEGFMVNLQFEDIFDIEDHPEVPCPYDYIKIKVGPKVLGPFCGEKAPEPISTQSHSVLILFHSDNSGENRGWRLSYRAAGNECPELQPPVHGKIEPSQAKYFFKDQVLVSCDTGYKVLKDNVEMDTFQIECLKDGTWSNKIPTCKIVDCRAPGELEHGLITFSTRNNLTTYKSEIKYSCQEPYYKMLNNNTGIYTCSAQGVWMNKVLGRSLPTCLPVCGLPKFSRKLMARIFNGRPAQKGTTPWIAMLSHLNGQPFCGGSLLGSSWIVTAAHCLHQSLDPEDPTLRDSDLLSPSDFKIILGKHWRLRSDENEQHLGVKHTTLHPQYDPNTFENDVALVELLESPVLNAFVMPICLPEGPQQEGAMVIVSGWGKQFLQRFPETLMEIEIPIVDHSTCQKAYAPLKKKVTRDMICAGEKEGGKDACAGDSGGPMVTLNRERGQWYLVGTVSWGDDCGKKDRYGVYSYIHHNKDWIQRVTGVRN
The experiment in a line: ELISA; plate coated with recombinant human MASP-1, mouse anti-human IgG4 HRP, OD450.

The target of another experiment is T2, Recombinant Human MASP-3 (human, UniProt P48740-2 20-728, limits assumed).
T2 construct: Bought protein, construct not described
T2 sequence (looked up): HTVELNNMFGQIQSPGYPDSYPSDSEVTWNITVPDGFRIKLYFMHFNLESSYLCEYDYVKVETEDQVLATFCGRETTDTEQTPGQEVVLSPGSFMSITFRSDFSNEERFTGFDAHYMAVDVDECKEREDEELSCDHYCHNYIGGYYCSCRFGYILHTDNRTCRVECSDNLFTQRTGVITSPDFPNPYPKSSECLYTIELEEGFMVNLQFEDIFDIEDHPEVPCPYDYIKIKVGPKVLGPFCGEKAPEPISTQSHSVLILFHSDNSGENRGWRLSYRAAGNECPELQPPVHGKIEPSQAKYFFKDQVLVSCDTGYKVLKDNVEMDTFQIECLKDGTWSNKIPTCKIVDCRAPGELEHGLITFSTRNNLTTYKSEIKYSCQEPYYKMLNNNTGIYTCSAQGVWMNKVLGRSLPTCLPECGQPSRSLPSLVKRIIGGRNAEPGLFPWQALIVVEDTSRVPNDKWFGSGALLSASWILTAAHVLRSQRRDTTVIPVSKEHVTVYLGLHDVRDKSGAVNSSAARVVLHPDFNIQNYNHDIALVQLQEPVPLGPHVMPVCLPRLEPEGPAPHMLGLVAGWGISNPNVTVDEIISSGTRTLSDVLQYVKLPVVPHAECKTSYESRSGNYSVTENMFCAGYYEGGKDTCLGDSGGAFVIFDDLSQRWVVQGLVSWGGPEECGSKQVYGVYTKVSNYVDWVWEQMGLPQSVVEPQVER
The experiment can be described thus: ELISA; plate coated with recombinant human MASP-3, mouse anti-human IgG4 HRP, OD450. On the technique in general: ELISA stands for enzyme-linked immunosorbent assay.

Experiment [1] deals with T3, Human FcRn (FCGRT&B2M) protein with His tag (human, UniProt P55899 24-297; P61769 21-119).
T3 construct: Carries a His tag (held on Ni-NTA biosensors)
T3 sequence (P55899 24-297 limits assumed, chain 1 of 2): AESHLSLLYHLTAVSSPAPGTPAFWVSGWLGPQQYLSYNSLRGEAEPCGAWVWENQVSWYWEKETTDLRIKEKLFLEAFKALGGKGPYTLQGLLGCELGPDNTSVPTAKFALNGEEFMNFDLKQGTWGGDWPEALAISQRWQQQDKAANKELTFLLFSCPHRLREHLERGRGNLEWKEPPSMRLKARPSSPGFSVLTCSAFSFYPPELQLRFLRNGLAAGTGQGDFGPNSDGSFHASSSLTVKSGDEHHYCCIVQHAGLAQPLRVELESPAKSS
T3 sequence (P61769 21-119 limits assumed, chain 2 of 2): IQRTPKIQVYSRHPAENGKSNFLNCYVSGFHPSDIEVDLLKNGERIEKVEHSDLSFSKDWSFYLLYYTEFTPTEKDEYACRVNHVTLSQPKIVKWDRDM
The experiment in a line: BLI (ForteBio), His-tagged human FcRn on Ni-NTA biosensor, antibody in solution (500, 167, 56, 19 nM). A general note: BLI is a label-free optical method that tracks binding on a fibre tip over time.

Experiment [2] addresses T4, human MASP-2 protein (recombinant, full-length, C-terminal tag) (human, UniProt O00187 16-686).
T4 construct: The protein was secreted and purified on an anti-FLAG or anti-HIS column; also called hMASP-2; Full-length human MASP-2 protein; not shown: C-terminal HIS-tag or FLAG-tag
The experiment can be described thus: BLI (ForteBio Octet RED96), antibody on Protein A biosensor, human MASP-2 in solution (100, 50, 25 nM).

The target in experiment [3] is T4, human MASP-2 protein (recombinant, …). The experiment can be described thus: ELISA; plate coated with human MASP2 (1 ug/ml), serially diluted antibody, mouse anti-human IgG4 Fc HRP, OD450.
For another experiment, the target named is T5, Cyno MASP2.
T5 construct: Recombinant coated protein; distinct from m29 (native MASP-2 in cynomolgus serum); also called cynomolgus MASP-2 (recombinant, generated in house)
T5 sequence (MASP-2 polypeptide, as listed by the source limits assumed): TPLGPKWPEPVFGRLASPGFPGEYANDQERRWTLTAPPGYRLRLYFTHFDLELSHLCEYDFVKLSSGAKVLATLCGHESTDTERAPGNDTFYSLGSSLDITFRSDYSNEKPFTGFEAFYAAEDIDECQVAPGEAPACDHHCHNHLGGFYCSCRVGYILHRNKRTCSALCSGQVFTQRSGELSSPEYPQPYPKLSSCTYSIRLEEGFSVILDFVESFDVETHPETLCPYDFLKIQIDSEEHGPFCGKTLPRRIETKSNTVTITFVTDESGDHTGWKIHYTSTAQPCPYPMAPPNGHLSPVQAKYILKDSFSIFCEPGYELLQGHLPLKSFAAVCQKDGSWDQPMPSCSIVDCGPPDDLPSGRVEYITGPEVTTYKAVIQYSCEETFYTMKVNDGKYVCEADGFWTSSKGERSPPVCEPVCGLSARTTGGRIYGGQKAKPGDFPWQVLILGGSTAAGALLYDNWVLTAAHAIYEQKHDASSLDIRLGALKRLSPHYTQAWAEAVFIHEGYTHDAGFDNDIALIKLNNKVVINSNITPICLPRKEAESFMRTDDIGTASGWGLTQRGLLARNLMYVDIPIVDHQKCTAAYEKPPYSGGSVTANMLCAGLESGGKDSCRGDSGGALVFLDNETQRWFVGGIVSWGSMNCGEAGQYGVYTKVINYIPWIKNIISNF
The experiment can be described thus: ELISA; plate coated with cynomolgus MASP2 (1 ug/ml), serially diluted antibody, mouse anti-human IgG4 Fc HRP, OD450.

Experiment [4] concerns the target T6, Recombinant Human Complement Component C1s (human, UniProt P09871 16-688, limits assumed).
T6 construct: Bought protein, construct not described; also called human C1s
T6 sequence (looked up): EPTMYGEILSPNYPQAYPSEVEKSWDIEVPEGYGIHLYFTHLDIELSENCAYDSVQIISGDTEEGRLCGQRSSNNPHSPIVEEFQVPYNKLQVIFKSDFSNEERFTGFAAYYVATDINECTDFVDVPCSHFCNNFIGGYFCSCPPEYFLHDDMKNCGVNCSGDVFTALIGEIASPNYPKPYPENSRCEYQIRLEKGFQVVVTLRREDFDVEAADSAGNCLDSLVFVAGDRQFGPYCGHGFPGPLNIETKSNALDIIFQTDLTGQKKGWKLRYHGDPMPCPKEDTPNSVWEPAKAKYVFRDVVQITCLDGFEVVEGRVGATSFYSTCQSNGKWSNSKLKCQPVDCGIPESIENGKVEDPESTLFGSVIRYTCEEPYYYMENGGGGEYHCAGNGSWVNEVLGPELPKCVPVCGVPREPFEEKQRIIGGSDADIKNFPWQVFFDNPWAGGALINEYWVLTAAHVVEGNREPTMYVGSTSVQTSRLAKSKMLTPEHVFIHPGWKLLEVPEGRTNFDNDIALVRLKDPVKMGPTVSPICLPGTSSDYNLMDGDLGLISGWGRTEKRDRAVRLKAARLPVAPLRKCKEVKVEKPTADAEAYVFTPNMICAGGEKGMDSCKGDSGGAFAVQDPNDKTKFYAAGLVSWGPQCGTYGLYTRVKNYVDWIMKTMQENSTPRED
The experiment in a line: ELISA; plate coated with recombinant human C1s, serially diluted antibody, mouse anti-human IgG4 HRP, OD450 (fit value printed for a flat curve).

A further experiment has as its target T7, Rat MASP2 (rat, UniProt Q9JJS8).
T7 construct: purchased protein coated on the ELISA plate at 1 ug/ml
The experiment can be described thus: ELISA; plate coated with rat MASP2 (1 ug/ml), serially diluted antibody, mouse anti-human IgG4 Fc HRP, OD450 (fit value printed for a flat curve).

A further experiment addresses T8, Mouse MASP2 (mouse, UniProt Q91WP0).
T8 construct: purchased protein coated on the ELISA plate at 1 ug/ml
The experiment can be described thus: ELISA; plate coated with mouse MASP2 (1 ug/ml), serially diluted antibody, mouse anti-human IgG4 Fc HRP, OD450 (fit value printed for a flat curve).

Experiment [5] has as its target T4, human MASP-2 protein (recombinant, …). The experiment can be described thus: ELISA; plate coated with human MASP2, serially diluted antibody, anti-human IgG4 HRP, OD at 450nm; concentration axis printed as 'Antibody conc.(nM)'.
For experiment [6], the target named is T3, Human FcRn (FCGRT&B2M) protein with His …. The experiment can be described thus: BLI (ForteBio), His-tagged human FcRn on Ni-NTA biosensor.

The results in this text go back to patent US20240309113A1 (SUZHOU TRANSCENTA THERAPEUTICS, published 2024).

As usually defined, the Kd is the concentration at which binding is half-saturated. The term koff denotes the rate constant with which the complex falls apart. The term kon denotes the rate constant with which the complex forms. One may read the EC50 as the midpoint of the concentration-response curve.

T4 sequence (O00187 16-686): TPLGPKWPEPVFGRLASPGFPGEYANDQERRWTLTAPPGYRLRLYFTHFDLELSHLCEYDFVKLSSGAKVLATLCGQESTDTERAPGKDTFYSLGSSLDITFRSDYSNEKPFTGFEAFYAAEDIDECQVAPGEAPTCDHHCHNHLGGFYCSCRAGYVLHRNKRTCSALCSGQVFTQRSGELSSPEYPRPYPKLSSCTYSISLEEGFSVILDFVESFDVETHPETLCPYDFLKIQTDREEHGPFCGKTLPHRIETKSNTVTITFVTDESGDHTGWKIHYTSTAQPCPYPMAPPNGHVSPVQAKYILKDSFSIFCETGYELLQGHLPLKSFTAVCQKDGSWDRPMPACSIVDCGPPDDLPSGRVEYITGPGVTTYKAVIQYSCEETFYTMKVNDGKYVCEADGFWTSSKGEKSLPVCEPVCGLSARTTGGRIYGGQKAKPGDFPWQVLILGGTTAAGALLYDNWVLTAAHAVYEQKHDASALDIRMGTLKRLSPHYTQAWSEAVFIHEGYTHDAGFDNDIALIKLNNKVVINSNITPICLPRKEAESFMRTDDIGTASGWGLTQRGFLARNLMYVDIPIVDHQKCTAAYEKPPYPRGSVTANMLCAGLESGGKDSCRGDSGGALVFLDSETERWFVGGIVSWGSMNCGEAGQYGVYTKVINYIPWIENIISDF
T7 sequence (Q9JJS8 20-685 limits assumed): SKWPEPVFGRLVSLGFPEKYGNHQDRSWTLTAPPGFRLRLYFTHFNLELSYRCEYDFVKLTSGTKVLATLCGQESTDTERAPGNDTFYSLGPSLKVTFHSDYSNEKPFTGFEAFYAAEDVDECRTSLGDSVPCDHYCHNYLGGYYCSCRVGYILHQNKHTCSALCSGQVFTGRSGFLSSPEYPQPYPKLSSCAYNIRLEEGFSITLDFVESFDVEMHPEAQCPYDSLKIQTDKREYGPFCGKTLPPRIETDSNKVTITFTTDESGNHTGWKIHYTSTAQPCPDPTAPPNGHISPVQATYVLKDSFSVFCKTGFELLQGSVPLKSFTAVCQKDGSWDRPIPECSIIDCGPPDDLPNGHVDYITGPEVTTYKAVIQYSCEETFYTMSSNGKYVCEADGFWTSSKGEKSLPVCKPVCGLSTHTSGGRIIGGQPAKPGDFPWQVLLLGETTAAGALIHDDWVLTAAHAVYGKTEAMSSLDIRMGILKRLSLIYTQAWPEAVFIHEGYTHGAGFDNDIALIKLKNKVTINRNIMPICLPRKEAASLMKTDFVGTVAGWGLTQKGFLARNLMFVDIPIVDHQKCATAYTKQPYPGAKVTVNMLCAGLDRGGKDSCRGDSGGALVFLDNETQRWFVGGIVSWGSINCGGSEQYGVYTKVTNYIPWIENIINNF
T8 sequence (Q91WP0 20-685 limits assumed): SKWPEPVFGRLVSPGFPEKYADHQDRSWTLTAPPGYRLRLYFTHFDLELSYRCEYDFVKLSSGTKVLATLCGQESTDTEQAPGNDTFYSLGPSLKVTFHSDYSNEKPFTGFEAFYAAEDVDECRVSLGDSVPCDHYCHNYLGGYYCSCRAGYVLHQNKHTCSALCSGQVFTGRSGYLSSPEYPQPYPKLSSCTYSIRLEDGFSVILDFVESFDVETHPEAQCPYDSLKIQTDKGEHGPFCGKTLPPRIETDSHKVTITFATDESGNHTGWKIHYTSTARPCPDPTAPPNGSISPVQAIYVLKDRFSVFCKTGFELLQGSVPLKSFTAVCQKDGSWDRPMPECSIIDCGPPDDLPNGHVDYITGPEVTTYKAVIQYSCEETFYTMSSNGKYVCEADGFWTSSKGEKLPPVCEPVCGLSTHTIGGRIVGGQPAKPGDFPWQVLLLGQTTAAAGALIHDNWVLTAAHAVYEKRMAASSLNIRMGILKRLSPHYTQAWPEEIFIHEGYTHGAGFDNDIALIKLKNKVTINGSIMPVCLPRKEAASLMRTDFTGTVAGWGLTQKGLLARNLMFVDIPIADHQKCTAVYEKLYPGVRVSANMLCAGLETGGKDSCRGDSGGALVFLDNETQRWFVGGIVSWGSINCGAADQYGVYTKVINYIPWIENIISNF

B1: 129C10 HaLa (129C10-hu) (antibody, human IgG4)
VH: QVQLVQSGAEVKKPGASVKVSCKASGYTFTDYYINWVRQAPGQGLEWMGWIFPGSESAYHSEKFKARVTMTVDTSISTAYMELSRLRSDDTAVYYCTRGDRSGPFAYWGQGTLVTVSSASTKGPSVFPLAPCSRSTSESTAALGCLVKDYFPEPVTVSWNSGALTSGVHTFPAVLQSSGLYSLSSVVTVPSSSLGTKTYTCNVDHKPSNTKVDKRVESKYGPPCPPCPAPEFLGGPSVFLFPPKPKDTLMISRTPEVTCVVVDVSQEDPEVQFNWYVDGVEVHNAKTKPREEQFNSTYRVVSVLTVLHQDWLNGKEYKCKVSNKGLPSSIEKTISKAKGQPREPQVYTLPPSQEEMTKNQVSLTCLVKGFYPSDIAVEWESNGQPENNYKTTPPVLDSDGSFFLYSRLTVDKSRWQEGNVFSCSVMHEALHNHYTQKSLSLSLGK
VL: DVVMTQSPLSLPVTLGQPASISCKSSQSLLYSNGKTYLNWLQQRPGQSPRRLIYLVSKLDSGVPDRFSGSGSGTDFTLKISRVEAEDVGVYYCVQVTHFPFTFGQGTKLEIKRTVAAPSVFIFPPSDEQLKSGTASVVCLLNNFYPREAKVQWKVDNALQSGNSQESVTEQDSKDSTYSLSSTLTLSKADYEKHKVYACEVTHQGLSSPVTKSFNRGEC
notes: Humanized; also called 129C10-hu-WT; Hu129C10_HaLa-hIgG4
As to B1, the binding result with Recombinant Human MASP-1 and with Recombinant Human MASP-3 was “no binding (tested: about 2 ug/ml)” throughout. The figures for the Kd in experiment [1] and in experiment [2] were 6.1 nM and less than 0.001 nM, respectively. For the same molecule, the dissociation rate constant (koff) in experiment [1] was 0.00317 s⁻¹; in experiment [2], less than 1e-07 s⁻¹. Moreover, the kon in experiment [1] is 520000 M⁻¹ s⁻¹; in experiment [2] it was 35300 M⁻¹ s⁻¹. Also, the EC50 was 0.0127 µg/mL in experiment [3]; 0.0111 µg/mL with Cyno MASP2; roughly 1.65 µg/mL in [4]; 17.2 µg/mL in the experiment with Rat MASP2; roughly 672 µg/mL in the experiment with Mouse MASP2; 0.0162 nM in experiment [5].

B2: 129C10-hu-YTE (Hu129C10 hIgG4_YTE kappa) (antibody)
heavy: QVQLVQSGAEVKKPGASVKVSCKASGYTFTDYYINWVRQAPGQGLEWMGWIFPGSESAYHSEKFKARVTMTVDTSISTAYMELSRLRSDDTAVYYCTRGDRSGPFAYWGQGTLVTVSSASTKGPSVFPLAPCSRSTSESTAALGCLVKDYFPEPVTVSWNSGALTSGVHTFPAVLQSSGLYSLSSVVTVPSSSLGTKTYTCNVDHKPSNTKVDKRVESKYGPPCPPCPAPEFLGGPSVFLFPPKPKDTLYITREPEVTCVVVDVSQEDPEVQFNWYVDGVEVHNAKTKPREEQFNSTYRVVSVLTVLHQDWLNGKEYKCKVSNKGLPSSIEKTISKAKGQPREPQVYTLPPSQEEMTKNQVSLTCLVKGFYPSDIAVEWESNGQPENNYKTTPPVLDSDGSFFLYSRLTVDKSRWQEGNVFSCSVMHEALHNHYTQKSLSLSLGK
light: DVVMTQSPLSLPVTLGQPASISCKSSQSLLYSNGKTYLNWLQQRPGQSPRRLIYLVSKLDSGVPDRFSGSGSGTDFTLKISRVEAEDVGVYYCVQVTHFPFTFGQGTKLEIKRTVAAPSVFIFPPSDEQLKSGTASVVCLLNNFYPREAKVQWKVDNALQSGNSQESVTEQDSKDSTYSLSSTLTLSKADYEKHKVYACEVTHQGLSSPVTKSFNRGEC
notes: also called Hu129C10_HaLa-hIgG4 with amino acid substitutions M252Y/S254T/T256E [YTE]
With B2, in experiment [6], the “fold increase of binding affinity against 129C10-hu” value is 3 fold. In [1], binding was put at a Kd of 1.88 nM, the koff turned out to be 0.00101 s⁻¹ and the kon turned out to be 536000 M⁻¹ s⁻¹.
